Data on two molecules can be found in publication PMC5762634, “Domain swapping and SMYD1 interactions with the PWWP domain of human hepatoma-derived growth factor”.

For the series, the target named is HDGF PWWP domain (human, UniProt P51858 1-100). The series is described as follows: size-exclusion chromatography; 5 mM EDTA; SEC: 20 mM Tris-HCl pH 7.5, 5 mM EDTA, 5 mM beta-ME, no added salt; protein:DNA 1:1, incubated overnight at 4 C. As to conditions: protein: recombinant; tags: His tag (pET28a, NdeI/EcoRI, Ni-NTA); chain copies: 2; blunt.
Chain of HDGF PWWP domain (P51858 1-100): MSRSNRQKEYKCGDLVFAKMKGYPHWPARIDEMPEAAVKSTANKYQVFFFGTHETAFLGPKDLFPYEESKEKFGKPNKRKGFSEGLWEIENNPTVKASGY

B1: 5-bp SMYD1 (dsDNA)
DNA 1: CAGGC
DNA 2: GCCTG
Consider B1, for which the binding result was “binds”.

B2: 15-bp SMYD1 (dsDNA)
DNA 1: CAGGCTGGTCTTGAA
DNA 2: TTCAAGACCAGCCTG
On to B2, for which the binding result was “binds”.
